Experimental findings from patent publication US20140020131 are described below.

Data set [1] relates to engineered MS26++ endonuclease (I-CreI-based) (synthetic construct (Chlamydomonas reinhardtii I-CreI derived)?). As to the kind of experiment: cell_activity. To be noted: 15 mutations among 344 T0 maize plants as printed; Agrobacterium.
Data set [2] concerns the target T1, engineered MS26+ endonuclease, intron-containing gene (ST-LS1 intron) (synthetic construct (Chlamydomonas reinhardtii I-CreI derived)?) (UniProt P05725).
T1 sequence: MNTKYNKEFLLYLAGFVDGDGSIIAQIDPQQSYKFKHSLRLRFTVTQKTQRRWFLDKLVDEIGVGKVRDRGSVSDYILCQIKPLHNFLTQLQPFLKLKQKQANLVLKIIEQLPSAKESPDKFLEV
The experiment in a line: cell_activity. To be noted: 3 of 257 T0 maize plants.

With “GATGGTGACGTACGTGCCCTAC (double strand) [TS-MS26 target site (maize MS26 exon 5)]”, the activity (% T0 plants mutated) in data set [1] is 5.8; in data set [2], 1.2.
